Source: patent US20240132563A1 (BRIGHT PEAK THERAPEUTICS, published 2024)
Positions of bridges follow the written chain, without caps; N, C: chain ends. Non-standard residues stand in square brackets, D forms with d. Chains are numbered I, II in the order given. Ygp = tyrosine with amino-capped PEG8; Yn3 = tyrosine with azide-capped PEG9; hSer = N[C@@H](CCO)C(=O)O; Nle = CCCC[C@H](N)C(=O)O

B1: Bifunctional cytokine Composition 4 (IL-18 SEQ ID NO: 30, linker 004, IL-2 SEQ ID NO: 300) (other)
chain 1: YFGKLKSKLSIIRNLNDQVLFIDQGNRPLFEDMTDSDARDNAPRTIFIISMYADSQPRGMAVAISVKCEKISTLSAENKIISFKEMNPPDNIKDTKSDIIFFQRSVPGHDNKMQFESSSYEGYFLAAEKERDLFKLILKKEDELGDRSIMFTVQNED
chain 2: APTSSSTKKTQLQLEHLLLDLQ[Nle]ILNGINNYKNPKLTR[Nle]L[hSer][Yn3]KF[Ygp][Nle]PKKATELKHLQCLEEELKPLEEVL[hSer]LAQSKNFHLRPRDLISNINVIVLELKGSETTF[hSer]CEYADETATIVEFLNRWITFSQSIISTLT
modifications: linker I:68-II:42 via linker 004 (SulfoDBCO-Maleimide) (inferred); ends not checked
notes: Two cytokines joined by a chemical (non-peptide) linker
B2: Bifunctional cytokine Composition 3 (IL-18 SEQ ID NO: 30, linker 006, IL-2 SEQ ID NO: 300) (other)
chain 1: YFGKLKSKLSIIRNLNDQVLFIDQGNRPLFEDMTDSDARDNAPRTIFIISMYADSQPRGMAVAISVKCEKISTLSAENKIISFKEMNPPDNIKDTKSDIIFFQRSVPGHDNKMQFESSSYEGYFLAAEKERDLFKLILKKEDELGDRSIMFTVQNED
chain 2: APTSSSTKKTQLQLEHLLLDLQ[Nle]ILNGINNYKNPKLTR[Nle]L[hSer][Yn3]KF[Ygp][Nle]PKKATELKHLQCLEEELKPLEEVL[hSer]LAQSKNFHLRPRDLISNINVIVLELKGSETTF[hSer]CEYADETATIVEFLNRWITFSQSIISTLT
modifications: linker I:68-II:42 via linker 006 (SulfoDBCO-PEG24-Maleimide) (inferred); ends not checked
notes: as for B1
B3: IL-18 polypeptide of SEQ ID NO: 30 (E6K, V11I, C38A, K53A, T63A, C76A, C127A) (ligand)
chain: YFGKLKSKLSIIRNLNDQVLFIDQGNRPLFEDMTDSDARDNAPRTIFIISMYADSQPRGMAVAISVKCEKISTLSAENKIISFKEMNPPDNIKDTKSDIIFFQRSVPGHDNKMQFESSSYEGYFLAAEKERDLFKLILKKEDELGDRSIMFTVQNED
notes: also called C086
B4: IL-2 polypeptide of SEQ ID NO: 300 (ligand)
chain: APTSSSTKKTQLQLEHLLLDLQ[Nle]ILNGINNYKNPKLTR[Nle]L[hSer][Yn3]KF[Ygp][Nle]PKKATELKHLQCLEEELKPLEEVL[hSer]LAQSKNFHLRPRDLISNINVIVLELKGSETTF[hSer]CEYADETATIVEFLNRWITFSQSIISTLT
modifications: ends and bridges not checked
notes: Synthetic modified IL-2

These binders were tested against T1, CD218a (IL-18 receptor alpha subunit), avi-tagged (UniProt Q13478 19-329, limits assumed) (assay: BLI; ligand CD218a (avi)).
T1 construct: BLI ligand printed as 'CD218a (avi)'; also called CD218a (avi); IL-18Rα
T1 sequence (looked up): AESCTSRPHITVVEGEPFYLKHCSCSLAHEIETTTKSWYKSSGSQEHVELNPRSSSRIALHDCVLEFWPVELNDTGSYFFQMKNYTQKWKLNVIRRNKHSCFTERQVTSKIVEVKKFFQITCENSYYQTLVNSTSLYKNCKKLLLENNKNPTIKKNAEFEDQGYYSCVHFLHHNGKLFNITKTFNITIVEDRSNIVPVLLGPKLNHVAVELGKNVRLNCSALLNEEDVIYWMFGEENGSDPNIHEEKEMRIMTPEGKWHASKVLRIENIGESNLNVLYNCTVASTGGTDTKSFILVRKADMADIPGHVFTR

First: B1
Second: B2
The Kd of the first is 2.7-fold higher: 66.4 nM for the first, 25 nM for the second. The second binds more tightly here.

Work on B3 yielded a Kd of 26.1 nM.

First: B1
Second: B2
The koff of the first is 1.7-fold higher: 0.0708 s⁻¹ for the first, 0.0405 s⁻¹ for the second.

Binder B3 has a koff of 0.0567 s⁻¹.

Going from B1 to B2, the kon rises from 1.07e+06 M⁻¹ s⁻¹ to 1.62e+06 M⁻¹ s⁻¹ (1.5-fold).

With B3 the kon was 2.17e+06 M⁻¹ s⁻¹.

Each binder was assayed against T2, IL-18R on HEK-Blue IL18R reporter cells (UniProt Q13478 19-541; O95256 20-599, limits assumed) (assay: cell-based or functional assay).
T2 sequence (looked up) 1: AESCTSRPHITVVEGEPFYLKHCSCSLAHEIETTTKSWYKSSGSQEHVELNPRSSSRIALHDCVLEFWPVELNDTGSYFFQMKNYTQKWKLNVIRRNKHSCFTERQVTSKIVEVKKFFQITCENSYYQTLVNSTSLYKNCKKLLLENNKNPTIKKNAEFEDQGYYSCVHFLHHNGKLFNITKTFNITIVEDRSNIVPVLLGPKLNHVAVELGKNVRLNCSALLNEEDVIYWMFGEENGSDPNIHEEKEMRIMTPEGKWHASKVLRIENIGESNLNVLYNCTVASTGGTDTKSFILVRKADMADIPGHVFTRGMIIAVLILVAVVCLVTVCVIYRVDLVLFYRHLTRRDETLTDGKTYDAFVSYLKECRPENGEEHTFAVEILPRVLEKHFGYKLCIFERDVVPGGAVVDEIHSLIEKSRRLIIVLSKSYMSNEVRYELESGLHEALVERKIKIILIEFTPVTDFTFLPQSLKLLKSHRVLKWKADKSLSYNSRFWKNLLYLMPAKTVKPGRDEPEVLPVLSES
T2 sequence (looked up) 2: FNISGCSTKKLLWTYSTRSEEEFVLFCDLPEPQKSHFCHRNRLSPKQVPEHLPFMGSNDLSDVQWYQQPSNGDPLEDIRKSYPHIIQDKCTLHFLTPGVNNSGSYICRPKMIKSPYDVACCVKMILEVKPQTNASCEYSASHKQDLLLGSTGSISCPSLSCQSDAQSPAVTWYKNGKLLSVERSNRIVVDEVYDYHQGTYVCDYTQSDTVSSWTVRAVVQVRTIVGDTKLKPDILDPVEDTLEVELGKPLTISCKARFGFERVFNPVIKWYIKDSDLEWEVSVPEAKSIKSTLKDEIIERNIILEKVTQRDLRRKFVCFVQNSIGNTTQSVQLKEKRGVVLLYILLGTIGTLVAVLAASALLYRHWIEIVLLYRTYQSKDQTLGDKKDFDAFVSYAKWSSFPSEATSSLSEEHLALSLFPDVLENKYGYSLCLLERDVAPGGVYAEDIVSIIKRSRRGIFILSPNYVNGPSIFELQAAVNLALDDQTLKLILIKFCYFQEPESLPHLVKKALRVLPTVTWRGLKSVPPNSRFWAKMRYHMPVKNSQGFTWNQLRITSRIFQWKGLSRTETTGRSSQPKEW

Compared with B1, B2 is 15-fold lower in “EC50, HEK-Blue IL18R reporter assay” value: 1.48 pM for the first, 0.1 pM for the second.

For B3, the “EC50, HEK-Blue IL18R reporter assay” value was 0.067 pM.

What follows are binders tested against T3, IL-2Rβγ on HEK-Blue IL2Rβγ reporter cells (UniProt P14784 27-551; P31785 23-369) (assay: cell-based or functional assay).
T3 sequence (looked up) 1: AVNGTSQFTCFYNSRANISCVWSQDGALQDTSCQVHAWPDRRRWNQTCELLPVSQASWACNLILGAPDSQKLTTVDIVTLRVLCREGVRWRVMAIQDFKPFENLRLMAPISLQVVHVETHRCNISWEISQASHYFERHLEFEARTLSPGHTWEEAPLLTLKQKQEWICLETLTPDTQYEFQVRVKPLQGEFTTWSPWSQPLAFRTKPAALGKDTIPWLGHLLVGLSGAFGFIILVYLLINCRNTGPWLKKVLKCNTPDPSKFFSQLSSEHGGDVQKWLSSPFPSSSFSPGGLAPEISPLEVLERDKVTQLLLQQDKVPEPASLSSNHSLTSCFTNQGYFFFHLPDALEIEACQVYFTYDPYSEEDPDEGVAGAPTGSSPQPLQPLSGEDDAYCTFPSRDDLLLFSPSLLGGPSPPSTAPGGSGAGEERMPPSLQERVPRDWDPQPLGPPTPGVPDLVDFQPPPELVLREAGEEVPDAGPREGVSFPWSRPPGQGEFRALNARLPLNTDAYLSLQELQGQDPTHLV
T3 sequence (looked up) 2: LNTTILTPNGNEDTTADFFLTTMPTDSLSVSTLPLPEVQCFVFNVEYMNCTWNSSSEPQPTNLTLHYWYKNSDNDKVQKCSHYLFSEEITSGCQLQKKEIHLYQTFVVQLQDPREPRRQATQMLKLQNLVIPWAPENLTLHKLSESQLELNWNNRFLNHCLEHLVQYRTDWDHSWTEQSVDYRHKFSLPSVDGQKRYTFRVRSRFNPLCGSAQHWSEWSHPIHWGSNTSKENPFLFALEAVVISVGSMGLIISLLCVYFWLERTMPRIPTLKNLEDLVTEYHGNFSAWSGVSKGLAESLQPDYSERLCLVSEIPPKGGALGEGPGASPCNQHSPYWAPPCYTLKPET

Going from B1 to B4, the “EC50, HEK-Blue IL2Rβγ reporter assay” value falls from 0.05 nM to 0.004 nM (12-fold).

For B2, the “EC50, HEK-Blue IL2Rβγ reporter assay” value was 0.007 nM.

What follows are binders tested against T4, IL-2Rβ (CD122), avi-tagged (UniProt P14784 27-239, limits assumed) (assay: BLI; ligand CD122 (avi)).
T4 construct: BLI ligand printed as 'CD122 (avi)'; also called IL-2 receptor beta subunit
T4 sequence (looked up): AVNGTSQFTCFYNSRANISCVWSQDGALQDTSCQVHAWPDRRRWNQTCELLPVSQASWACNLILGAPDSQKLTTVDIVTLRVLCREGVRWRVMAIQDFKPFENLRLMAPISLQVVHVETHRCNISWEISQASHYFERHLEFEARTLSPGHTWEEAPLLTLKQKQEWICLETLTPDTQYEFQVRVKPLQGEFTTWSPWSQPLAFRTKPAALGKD

B1 and B4 are within 1.5-fold of each other in Kd: 148 nM for the first, 206 nM for the second.

For B2, the Kd was 151 nM.

B1 and B4 are within 1.5-fold of each other in koff: 0.0863 s⁻¹ for the first, 0.102 s⁻¹ for the second.

Binder B2 has a koff of 0.0842 s⁻¹.

B1 and B4 are within 1.5-fold of each other in kon: 585000 M⁻¹ s⁻¹ for the first, 493000 M⁻¹ s⁻¹ for the second.

Work on B2 yielded a kon of 559000 M⁻¹ s⁻¹.
